From US20050074845A1 (Sanofi, published 2005) come the findings set out here.

For this test, the target named is T1, human GLUT4 (human, UniProt P14672 1-509, limits assumed).
T1 construct: The ubiquitin-half fusion partners and the limits of the construct are not described; also called Glut 4 transporter
T1 sequence (looked up): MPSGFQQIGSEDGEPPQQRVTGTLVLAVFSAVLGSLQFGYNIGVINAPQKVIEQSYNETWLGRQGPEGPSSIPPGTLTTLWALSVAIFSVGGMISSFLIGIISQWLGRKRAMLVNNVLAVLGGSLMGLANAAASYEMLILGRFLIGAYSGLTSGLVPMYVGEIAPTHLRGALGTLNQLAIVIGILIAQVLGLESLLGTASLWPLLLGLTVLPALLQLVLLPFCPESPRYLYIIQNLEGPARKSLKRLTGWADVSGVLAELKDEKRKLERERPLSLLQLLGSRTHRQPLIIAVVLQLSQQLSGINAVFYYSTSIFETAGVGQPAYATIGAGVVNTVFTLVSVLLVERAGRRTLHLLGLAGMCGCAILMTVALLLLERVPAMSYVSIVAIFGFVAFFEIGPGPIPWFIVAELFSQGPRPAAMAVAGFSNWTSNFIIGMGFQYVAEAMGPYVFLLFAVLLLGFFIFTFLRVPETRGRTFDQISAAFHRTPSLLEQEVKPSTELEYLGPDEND
Description: split-ubiquitin protein interaction assay in yeast.

B1: yeast Erg4 (enzyme)
chain: not shown
notes: The ubiquitin-half fusion partners and the limits of the construct are not described; also called Erg4 protein; sterol C-24(28)-reductase
In the case of B1, the binding result was “binds”.
